# Laboratory results taken from paper PMC3089636.
# Target: T1, Fur (ferric uptake regulator) (Salmonella enterica (strain for cloning not stated; SL1344/SV5015 used in the paper)) (UniProt A0A0H3NJ13)
# T1 sequence: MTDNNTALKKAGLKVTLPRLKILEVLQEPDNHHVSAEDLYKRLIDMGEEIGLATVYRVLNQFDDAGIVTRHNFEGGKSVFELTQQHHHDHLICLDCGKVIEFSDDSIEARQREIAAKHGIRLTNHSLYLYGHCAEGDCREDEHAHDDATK
# Assay: EMSA
# Settings: EMSA: 10 mM Bis-Tris/borate pH 7.5, 5% glycerol, 1 mM MgCl2, 40 mM KCl, 100 ug/ml BSA, 0.2 mg/ml salmon sperm DNA, 100 uM MnCl2, 20 nM probe, 10 min 37 C …
Substance,Kd,binding
FrgA (PhilD),4.5 nM,
AGTTATCTGCGGCAGGACGCTGATGACTATTACTTACAAAGGTTACATTTTCCATATTATCCCTTTGTTGATGTTATTTTAATGTTCCTTACTGGTATCCTACTGA (double strand) [FrgC],,no binding
AGTTATCTGCGGCAGGACGCTGATGACTATTACTTACAAAGGTTACATTTTCCATATTATCCCTTTGTTGATGTTATTTTAATGTTCCTTACTGGTATCCTACTGAAAAAATCTGAGTTGTAAATGCTCTTTATTAGCGTGTGTTGGCAATGGTCTGATTGTTACACCAAAAGAACCCAAATTTGGGTAATTTATCTACAGTAGTTTAAGCCCCAATGGGGATGATGGTTCTTTTAATATGTGTTGAGACGCATTATACA (double strand) [FrgB],,no binding
